In publication PMC3790809:
Values joined by “and” are separate entries in the source; they are usually repeats but may differ in a detail not shown here. Equal values may be shown once.

Key:
[1] = biological target: YsaL-His (YE3555 with N-terminal His tag, refolded) (Yersinia enterocolitica ATCC51871 (serotype O:8, biovar 1B)); experiment: cross-linking; refolded YsaL-His (100 µg in 30 µl), 2 µL of 1.5% glutaraldehyde, 25°C, 5 min; 50 mM sodium phosphate pH 8.0, 150 mM NaCl; SDS-PAGE
[2] = biological target: YsaL-His (YE3555 with N-terminal His tag, refolded) (Yersinia enterocolitica ATCC51871 (serotype O:8, biovar 1B)); experiment: SEC
[3] = biological target: YsaN-His (full length YsaN, YE3544, with N-terminal His tag) (Yersinia enterocolitica ATCC51871 (serotype O:8, biovar 1B)); experiment: dynamic light scattering; YsaN-His 0.7 mg/ml, 25°C, 25 mM Tris, 300 mM NaCl, 2% glycerol; mass from the hydrodynamic size
[4] = biological target: YsaN-His (full length YsaN, YE3544, with N-terminal His tag) (Yersinia enterocolitica ATCC51871 (serotype O:8, biovar 1B)); experiment: SEC
[5] = biological target: YsaNΔ(411–430)-His (Yersinia enterocolitica ATCC51871 (serotype O:8, biovar 1B)); experiment: SPR
[6] = biological target: YsaN-His (full length YsaN, YE3544, with N-terminal His tag) (Yersinia enterocolitica ATCC51871 (serotype O:8, biovar 1B)); experiment: SPR
[7] = biological target: YsaNΔ(1–5)-His (Yersinia enterocolitica ATCC51871 (serotype O:8, biovar 1B)); experiment: SPR
[8] = biological target: YsaNΔ(426–430)-His (Yersinia enterocolitica ATCC51871 (serotype O:8, biovar 1B)); experiment: SPR
[9] = biological target: YsaN-His (full length YsaN, YE3544, with N-terminal His tag) (Yersinia enterocolitica ATCC51871 (serotype O:8, biovar 1B))
[10] = biological target: YsaNflr-His (full length YsaN, refolded) (Yersinia enterocolitica ATCC51871); experiment: SPR
[11] = biological target: YsaNΔ(411-430)-His (Yersinia enterocolitica ATCC51871); experiment: SPR
[12] = biological target: YsaNΔ(1-5)-His (Yersinia enterocolitica ATCC51871); experiment: SPR
[13] = biological target: YsaN-His (full length YsaN, soluble) (Yersinia enterocolitica ATCC51871); experiment: SPR
[14] = biological target: YsaNΔ(426-430)-His (Yersinia enterocolitica ATCC51871); experiment: SPR

Question: With “YsaL-His (YE3555 with N-terminal His tag, refolded) (natural protein)” as the substance, how does the stoichiometry N [1] read?
Answer: 2

Question: And the stoichiometry N [2]?
Answer: 2

Question: What does the source list for “YsaN-His (full length YsaN, YE3544, with N-terminal His tag) (enzyme)”?
Answer: percent of sample in the oligomeric form [3]: 90%; stoichiometry N [4]: 12

Question: What does the source list for “untagged YsaL (YE3555) (natural protein)”?
Answer: Kd [5]: 0.1 µM; Kd [6]: 0.035 µM and 0.042 µM; Kd [7]: 400 µM; Kd [8]: 0.1 µM; stoichiometry N (YsaL per YsaN) [4]: 2; inhibition of the ATPase activity of YsaN-His (malachite green assay); untagged YsaL in the soluble co-purified untagged YsaL-YsaN-His complex, highly comparable with YsaL-His added at 2∶1 [9]: 73%

Question: Which Ka [10] does the source give for “untagged YsaL (YE3555), refolded (natural protein)” here?
Answer: 2.38e+08 M⁻¹

Question: What about the koff [10] of the same substance?
Answer: 1.91e-05 s⁻¹

Question: What about the kon [10] of the same substance?
Answer: 4540 M⁻¹ s⁻¹

Question: What about the Ka [11] of the same substance?
Answer: 3.86e+06 M⁻¹

Question: What about the Kd [11] of the same substance?
Answer: 0.26 µM

Question: And the koff [11]?
Answer: 0.000132 s⁻¹

Question: And the kon [11]?
Answer: 510 M⁻¹ s⁻¹

Question: And the Ka [12]?
Answer: 20300 M⁻¹

Question: And the Ka [13]?
Answer: 2.9e+07 M⁻¹

Question: And the koff [13]?
Answer: 0.000119 s⁻¹

Question: And the kon [13]?
Answer: 3450 M⁻¹ s⁻¹

Question: What about the Ka [14] of the same substance?
Answer: 882000 M⁻¹
